Laboratory results from patent publication US20200157217A1 (SYSTIMMUNE, published 2020).
Like-named read-outs stand apart in the source and are kept apart here.

Tests used:
[1] = target: T1, human CD3 Delta/Epsilon Fc fusion protein (human, UniProt P04234 22-105; P07766 23-126); experiment: Octet (bio-layer interferometry), bivalent kdis
T1 construct: Construct limits and Fc are not described; also called Human CD3 Delta-Epsilon Fc ("Knobs-into-hole"-KnH)

Cyno T cell line = experiment: FACS, B cell culture supernatant on the cynomolgus T cell line (HSC-F per paragraph 87)
[2] = target: T2, human CD3 Gamma/Epsilon Fc fusion protein (human, UniProt P09693 23-116; P07766 23-126); experiment: Octet (bio-layer interferometry), bivalent kdis; antigen printed 'Human δ/γ - Fc', taken as the Gamma/Epsilon Fc that paragraph 95 names for FIG. 8
T2 construct: Construct limits and Fc are not described; also called Gamma-Epsilon Fc (KnH)

[3] = target: T2, human CD3 Gamma/Epsilon Fc fusion …; experiment: Octet (bio-layer interferometry), bivalent kdis; antigen printed 'Epsilon-Gamma', taken as the human Gamma/Epsilon Fc that paragraph 95 names for FIG. 8
[4] = target: T3, human CD3 (Delta, Gamma, Epsilon) on the human T cell line Jurkat or on purified human CD3+ T cells (human, UniProt P07766 23-207; P09693 23-182; P04234 22-171); experiment: FACS, antibody titration on Jurkat cells
T3 construct: whole, on cells; On cells CD3 sits in the TCR complex

[5] = target: T3, human CD3 (Delta, Gamma, Epsilon) on …; experiment: FACS, antibody titration on Jurkat cells; remark: listed apart in the source

T2 sequence (P09693 23-116, chain 1 of 2): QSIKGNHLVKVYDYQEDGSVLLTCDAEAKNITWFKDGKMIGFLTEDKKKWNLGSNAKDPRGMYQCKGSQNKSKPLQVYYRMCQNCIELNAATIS
T2 sequence (P07766 23-126, chain 2 of 2): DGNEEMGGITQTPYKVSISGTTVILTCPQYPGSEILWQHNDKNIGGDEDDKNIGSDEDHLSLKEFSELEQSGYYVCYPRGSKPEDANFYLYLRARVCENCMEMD
T1 sequence (P04234 22-105, stated change not applied, chain 1 of 2): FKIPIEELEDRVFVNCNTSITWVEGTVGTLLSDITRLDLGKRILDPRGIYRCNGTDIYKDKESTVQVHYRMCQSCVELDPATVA
T1 sequence (P07766 23-126, stated change not applied, chain 2 of 2): as the sequence (P07766 23-126, chain 2 of 2) above
T3 sequence (P07766 23-207, stated change not applied, chain 1 of 3): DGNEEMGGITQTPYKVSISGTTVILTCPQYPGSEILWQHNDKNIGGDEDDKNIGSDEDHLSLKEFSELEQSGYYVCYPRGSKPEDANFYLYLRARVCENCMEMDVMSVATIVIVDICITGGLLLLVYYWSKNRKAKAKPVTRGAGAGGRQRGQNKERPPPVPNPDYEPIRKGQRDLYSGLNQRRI
T3 sequence (P09693 23-182, stated change not applied, chain 2 of 3): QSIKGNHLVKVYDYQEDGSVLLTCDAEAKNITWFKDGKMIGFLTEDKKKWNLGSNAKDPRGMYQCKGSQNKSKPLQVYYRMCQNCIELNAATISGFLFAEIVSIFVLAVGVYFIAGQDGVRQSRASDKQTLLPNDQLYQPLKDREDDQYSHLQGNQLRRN
T3 sequence (P04234 22-171, stated change not applied, chain 3 of 3): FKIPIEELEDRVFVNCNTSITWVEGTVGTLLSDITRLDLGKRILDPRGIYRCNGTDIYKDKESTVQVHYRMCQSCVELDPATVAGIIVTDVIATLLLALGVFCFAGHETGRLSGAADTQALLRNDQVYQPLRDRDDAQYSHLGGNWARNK

Binder | koff [1] | koff [2] | further results
299F6 1.1 (antibody, human IgG1, kappa, V domains shown, sheet: mAb '299F6 1.1', format 'humanized'; also called 299F6 humanized) VH: EVQLVESGGGLVQPGGSLRLSCAASGFTISSNAMSWVRQAPGKGLEWIGVITGRDITYYANWAKGRFTISRDNSKNTLYLQMNSLRAEDTAVYYCARDGGSSAITSNNIWGQGTLVTVSS VL: DIQMTQSPSTLSASVGDRVTITCQASESISSWLAWYQQKPGKAPKLLIYEASKLASGVPSRFSGSGSGTEFTLTISSLQPDDFATYYCQGYFYFISRSYVNAFGGGTKVEIKR | 0.0006 s⁻¹ |  | 
284A10 1.1 (antibody, human IgG1, kappa, V domains shown, sheet: mAb '284A10 1.1', format 'humanized'; also called 284A10 humanized) VH: EVQLVESGGGLVQPGGSLRLSCAASGFTISTNAMSWVRQAPGKGLEWIGVITGRDITYYASWAKGRFTISRDNSKNTLYLQMNSLRAEDTAVYYCARDGGSSAITSNNIWGQGTLVTVSS VL: DVVMTQSPSTLSASVGDRVTINCQASESISSWLAWYQQKPGKAPKLLIYEASKLASGVPSRFSGSGSGTEFTLTISSLQPDDFATYYCQGYFYFISRTYVNSFGGGTKVEIKR | 0.00053 s⁻¹ |  | 
284A10 (antibody, V domains shown) VH: QSLEESGGRLVTPGTPLTLTCTVSGFTISTNAMSWVRQVPGKGLEWIGVITGRDITYYASWAKGRFTISKTSSTTVDLKMTSLTAEDSATYFCARDGGSSAITSNNIWGPGTLVTVSS VL: DVVMTQTPPSVSAAVGGTVTIKCQASESISSWLAWYQQKPGQPPKLLIYEASKLASGVPSRFSGSGSGTEFTLTISDLECADAATYYCQGYFYFISRTYVNSFGGGTEVEFK |  |  | MFI (Cyno T cell line): 615 MFI
299F6 chimeric rabbit/human IgG antibody (antibody, V domains shown) VH: QSLEESGGRLVTPGTPLTLTCTVSGFTISSNAMSWVRQAPGKGLEWIGVITGRDITYYANWAKGRFTISKTSSTTVDLKMTSLTAEDSATYFCARDGGSSAITSNNIWGPGTLVTVSS VL: DVVMTQTPSSVSAAVGGTVTINCQASESISSWLAWYQQKPGQPPKLLIYEASKLASGVPSRFSGSGSGTEFTLTISDLECADAATYYCQGYFYFISRSYVNAFGGGTEVVFKR | 0.00049 s⁻¹ | 0.00045 s⁻¹ | 
295E9 (antibody, V domains shown) VH: QSLEESGGRLVTPGTPLTLTCTVSGIDLSSNAMSWVRQAPGKGLEWIGVITGRDINYYASWAKGRFTISKTSSTTVDLKMTSLTAEDSATYFCARDGGSSAITSKNIWGPGTLVTVSS VL: DVVMTQTPASVEAAVGGTVTINCQASESISSWLAWYQQRPGQPPKLLIYEASKLASGVPSRFKGSGSGTEFTLTISDLECADAATYYCQGYFYFISRSYVNAFGGGTEVVVK |  |  | MFI (Cyno T cell line): 549 MFI
480A7 chimeric rabbit/human IgG antibody (antibody, V domains shown) VH: QSLEESGGRLVTPGTPLTLTCTVSGIDLSSNAMSWVRQAPGKGLEWIGVITGRDITYYASWAKGRFTISKTSSTTVDLKMTSLTAEDSATYFCARDGGSSAITSKNIWGPGTLVTVSS VL: DVVMTQTPASVEAAVGGTVTINCQASESISSWLAWYQQRPGQPPKLLIYEASKLASGVPSRFSGSGSGTEFTLTISDLECADAATYYCQGYFYFISRSYVNAFGGGTEVVFKR | 0.00066 s⁻¹ |  | koff [3]: 0.0006 s⁻¹; binding result [4]: binds
284A10 chimeric rabbit/human IgG antibody (antibody, V domains shown) VH: QSLEESGGRLVTPGTPLTLTCTVSGFTISTNAMSWVRQVPGKGLEWIGVITGRDITYYASWAKGRFTISKTSSTTVDLKMTSLTAEDSATYFCARDGGSSAITSNNIWGPGTLVTVSS VL: DVVMTQTPPSVSAAVGGTVTIKCQASESISSWLAWYQQKPGQPPKLLIYEASKLASGVPSRFSGSGSGTEFTLTISDLECADAATYYCQGYFYFISRTYVNSFGGGTEVEFKR | 0.0005 s⁻¹ | 0.0013 s⁻¹ | 

Now from value to binder, other results behind:

koff [1] | koff [2] | Binder | further results
0.0005 s⁻¹ |  | 480C8 1.1 (antibody, human IgG1, kappa, V domains shown, sheet: mAb '480C8 1.1', format 'humanized'; also called 480C8 humanized) VH: EVQLVESGGGLVQPGGSLRLSCAASGIDLSSNAMSWVRQAPGKGLEWIGVITGRDITYYASWAKGRFTISRDNSKNTLYLQMNSLRAEDTAVYYCARDGGSSAINSKNIWGQGTLVTVSS VL: DIQMTQSPSTLSASVGDRVTITCQASESISSWLAWYQQKPGKAPKLLIYEASKLASGVPSRFSGSGSGTEFTLTISSLQPDDFATYYCQGYFYFISRTYVNAFGGGTKVEIKR | 
0.00042 s⁻¹ | 0.00054 s⁻¹ | 480C8 chimeric rabbit/human IgG antibody (antibody, V domains shown, also called 48008) VH: QSLEESGGRLVTPGTPLTLTCTVSGIDLSSNAMSWVRQAPGKGLEWIGVITGRDITYYASWAKGRFTISKTSSTTVDLKMTSLTAEDSATYFCARDGGSSAINSKNIWGQGTLVTVSS VL: DVVMTQTPSSVSAAVGGTVTINCQASESISSWLAWYQQKPGQPPKLLIYEASKLASGVPSRFSGSGSGTEFTLTISDLECADAATYYCQGYFYFISRTYVNAFGGGTEVEFKR | binding result [5]: binds
0.0052 s⁻¹ | 0.0052 s⁻¹ | 295E9 chimeric rabbit/human IgG antibody (antibody, V domains shown) VH: QSLEESGGRLVTPGTPLTLTCTVSGIDLSSNAMSWVRQAPGKGLEWIGVITGRDINYYASWAKGRFTISKTSSTTVDLKMTSLTAEDSATYFCARDGGSSAITSKNIWGPGTLVTVSS VL: DVVMTQTPASVEAAVGGTVTINCQASESISSWLAWYQQRPGQPPKLLIYEASKLASGVPSRFKGSGSGTEFTLTISDLECADAATYYCQGYFYFISRSYVNAFGGGTEVVVKR | 
